T1: His-tagged human TIGIT (human, UniProt Q495A1 22-141)
T1 construct: SPR analyte; also called human TIGIT protein; not shown: His tag
T1 sequence: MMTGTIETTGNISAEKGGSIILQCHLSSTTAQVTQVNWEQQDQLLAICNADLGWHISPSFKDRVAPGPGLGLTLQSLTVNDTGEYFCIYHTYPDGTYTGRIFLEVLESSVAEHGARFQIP

T2: human TIGIT expressed on CHO-K1 cells (human, UniProt Q495A1 22-244)
T2 construct: whole, on cells; also called human TIGIT-CHO-K1 cells; human TIGIT over-expressing cell line
T2 sequence (looked up): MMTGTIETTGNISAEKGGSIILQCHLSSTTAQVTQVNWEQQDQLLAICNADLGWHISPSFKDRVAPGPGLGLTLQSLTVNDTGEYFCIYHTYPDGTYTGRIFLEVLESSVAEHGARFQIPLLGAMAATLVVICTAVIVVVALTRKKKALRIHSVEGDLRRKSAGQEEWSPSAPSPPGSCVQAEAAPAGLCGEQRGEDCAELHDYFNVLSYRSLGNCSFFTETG

T3: TIGIT on TIGIT-over expressing NFAT-Luc/Jurkat effector cells (GenScript reporter cell line) (UniProt Q495A1 22-244, limits assumed)
T3 sequence (looked up): T2 sequence (looked up)

B1: Hu1217-2-2 (anti-TIGIT positive control antibody) (antibody, V domains shown)
VH: EVQLVESGGGLVQPGGSLRLSCAASGFTFSDYYMYWVRQAPGKGLEWVAYITKGGGSTYYPDSVKGRFTISRDNAKNTLYLQMNSLRAEDTAVYYCARQTNYDFTMDYWGQGTLVTVSS
VL: EIVMTQSPATLSVSPGERATLSCKASQDVGTSVAWYQQKPGQAPRLLIYWASARHTGIPARFSGSGSGTEFTLTISSLQSEDFAVYYCQQYSSYPLTFGGGTKVEIK
B2: huTIGIT-6-1 (antibody, human IgG1, kappa, V domains shown)
VH: QVQLVQSGAEVKKPGASVKVSCKASGYTITENTMHWVRQAPGQRLEWIGGINPNQGGTSYSQKFQGRATLTVDTSASTAYMELSSLRSEDTAVYYCTRSSYYRYDLDYWGQGTTVTVSS
VL: DIQMTQSPSSLSASVGDRVTITCQASQDIKTALAWYQQKPGKAPKLLIYSASYRYTGVPSRFSGSGSGTDFTFTISSLQPEDIATYYCHQHYTTPWTFGGGTKLEIKR
notes: Humanized IgG; also called 6VH6.M4 + 6VL1.M1
B3: huTIGIT-6-2 (antibody, human IgG1, kappa, V domains shown)
VH: B2 VH with Q55N, G56A
VL: B2 VL
notes: Humanized IgG; also called 6VH6.M5 + 6VL1.M1
B4: huTIGIT-6-3 (antibody, human IgG1, kappa, V domains shown)
VH: B2 VH with I29F, T33A
VL: B2 VL
notes: Humanized IgG; also called 6VH6.M6 + 6VL1.M1
B5: TIGIT-18 chimeric antibody (antibody, human IgG1, kappa, V domains shown)
VH: QVQLQQPGAELVRPGASVKLSCKASGYSFTSYWMNWVKQRPGQGHEWIGMIHLSNSETRLNQNFLDKATLTVDKSSSTVYLQLSSPTSEDSAVYYCARERDYYGSSYFDYWGQGTTLTVSS
VL: DIVMTQSPASLVVSLGQRATISCRTSQSVSTSSYSYMHWYQQKPGQPPKLLIKNASNLESGVPARFSASGSGTDFTLNIHPVEEEDAATYYCQHSWEIPRTFGGGTKLEIKR
notes: Full-length chimeric IgG1 kappa
B6: TIGIT-100 chimeric antibody (antibody, human IgG1, kappa, V domains shown)
VH: QVQLQQPGPELVKPGASVKISCKASGYSFTDYNMNWVKQSNGKSLEWIGVINPNSGTDNYNQKFKGKATLTVDQSSSTAYMQLNSLTSEDSAVYFCARGVYFGNYFDSWGQGTTLTVSS
VL: DIVMTQSPASLSASVGETVTITCRASENIYSSLAWYQQKQGKSPQLLVFNAKTLTEGVPSRFSGSGSGTQFSLKINSLQPEDFGSYYCQHHYGAPWTFGGGTKLEIKR
notes: as for B5
B7: TIGIT-52 chimeric antibody (antibody, human IgG1, kappa, V domains shown)
VH: EVQLVESGGGLVEPGGSLTLSCVASGFTFSSFAMSWVRQTPEKRLEWVATISNGGSYTYYPDTVKGRFTISRDNAKNTLFLQMSSLRSEDTAMYYCARPYYGTTYGYYFDFWGQGTTLTVSS
VL: QIVLTQSPASLAVSLGQRATISCRASESVDRNGNSFMHWYQQKPGQPPKLLIYLASNLESGVPARFSGSGSRTDFTLTIDPVEADDAATYYCQQNNEDPLTFGAGTKLELKR
notes: as for B5
B8: reshaped TIGIT-3 antibody 3VH3 + 3VL1.M3 (antibody, V domains shown)
VH: EVQLVESGGGLVQPGGSLRLSCAASGFTFSSYGMSWVRQAPGKGLELVATIKSDGGSTNLPDSVKGRFTISRDNSKNTLYLQMNSLRAEDTAVYYCVRGYFDYWGQGTTVTVSS
VL: DIQMTQSPSSLSASVGDRVTITCKASQDVKTAVAWYQQKPGKVPKLLIYWASTRHSGVPSRFSGSGSGTDFTLTISSLQPEDVATYYCQQYYSTPYTFGGGTKVEIK
notes: Full-length IgG, tested as HEK293 supernatant
B9: reshaped TIGIT-3 antibody 3VH3 + 3VL1.M1 (antibody, V domains shown)
VH: B8 VH
VL: B8 VL with K24R, V29I, V33L, A51S, S56T
notes: as for B8
B10: reshaped TIGIT-3 antibody 3VH3 + 3VL1.M4 (antibody, V domains shown)
VH: B8 VH
VL: B8 VL with H55Q
notes: as for B8

Changes are numbered by the printed parent chain.

The source of these data is US20260139048A1 (NANJING LEGEND BIOTECH, published 2026).

T4 sequence (A0A7N9I9V4 entry or part of it): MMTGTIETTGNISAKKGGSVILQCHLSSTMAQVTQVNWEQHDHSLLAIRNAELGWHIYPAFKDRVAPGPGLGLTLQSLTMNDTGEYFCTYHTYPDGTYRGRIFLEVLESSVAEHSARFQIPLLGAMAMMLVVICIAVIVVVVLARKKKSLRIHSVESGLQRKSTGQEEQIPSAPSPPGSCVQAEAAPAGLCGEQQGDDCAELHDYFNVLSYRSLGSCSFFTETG

The first experiment has as its target T4, cynomolgus TIGIT expressed on CHO-K1 cells (cynomolgus, UniProt A0A7N9I9V4 89-312).
T4 construct: whole, on cells; also called cynomolgus TIGIT over-expressing cell line
Put plainly: flow cytometry on CHO-K1 cells expressing cynomolgus TIGIT. For orientation: In flow cytometry, cells or beads pass a laser one at a time.
As to B1, a half-maximal response (EC50) required 43 nM.
The same measure, in the same setting: to B2 belongs 4.69 nM; to B3, 4.98 nM; to B4, 8.2 nM.

In the next experiment the target is T5, His-tagged cynomolgus TIGIT (cynomolgus, UniProt A0A7N9I9V4 89-209).
T5 construct: SPR analyte; also called cynomolgus TIGIT protein; not shown: His tag
T5 sequence (A0A7N9I9V4 entry or part of it): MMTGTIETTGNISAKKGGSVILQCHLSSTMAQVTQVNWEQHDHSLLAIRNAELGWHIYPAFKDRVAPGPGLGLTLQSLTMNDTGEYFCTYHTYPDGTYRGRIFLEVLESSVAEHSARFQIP
Put plainly: SPR (Biacore T200), antibody captured, His-tagged TIGIT analyte. For orientation: In SPR one partner is held on a chip, and binding of the other changes the refractive index at the surface.
In the case of B5, the dissociation constant Kd was 4.4 nM, the koff was 0.0011 s⁻¹ and the kon worked out at 260000 M⁻¹ s⁻¹.
As for B1, the Kd came out at 280 nM, the koff came to 0.044 s⁻¹ and the kon amounted to 160000 M⁻¹ s⁻¹.
For B6 the same measures were 29 nM, 0.012 s⁻¹ and 420000 M⁻¹ s⁻¹.
For B7 the same measures were 0.28 nM, 6.1e-05 s⁻¹ and 220000 M⁻¹ s⁻¹.

A further experiment addresses T1, His-tagged human TIGIT. The experiment is described as above.
B5: the Kd is 0.22 nM, the koff came out at 9.5e-05 s⁻¹ and the association rate constant (kon) turned out to be 430000 M⁻¹ s⁻¹.
In the same order, the values of B1 are 0.11 nM, 0.00013 s⁻¹ and 1.2e+06 M⁻¹ s⁻¹.
For B6 the same measures were 6.6 nM, 0.014 s⁻¹ and 2.2e+06 M⁻¹ s⁻¹.
In the same order, the values of B7 are 0.17 nM, 7.4e-05 s⁻¹ and 440000 M⁻¹ s⁻¹.

The target in the next experiment is T1, His-tagged human TIGIT. As to the kind of experiment: SPR experiment 2, IgG from HEK293 supernatant captured.
B2: the affinity, expressed as Kd, was 0.34 nM; the koff was 9.8e-05 s⁻¹; the kon turned out to be 280000 M⁻¹ s⁻¹.
Take B3: the Kd turned out to be 0.71 nM, the koff amounted to 0.00022 s⁻¹ and the kon was determined as 300000 M⁻¹ s⁻¹.
Turning to B4, the affinity, expressed as Kd, was 0.64 nM; the koff came out at 0.00017 s⁻¹; the kon was determined as 270000 M⁻¹ s⁻¹.

The next experiment concerns the target T2, human TIGIT expressed on CHO-K1 cells. Put plainly: flow cytometry competition: biotinylated CD155-Fc on human TIGIT-CHO-K1 cells.
Consider B5, for which the IC50 is 1.23 nM.
Molecule B1 showed an IC50 of 0.81 nM.
In turn, B6 returned an IC50 of 0.82 nM.
On the same count and under the same terms, to B7 belongs 13.9 nM.

A further experiment has as its target T1, His-tagged human TIGIT. Put plainly: SPR experiment 3, IgG from HEK293 supernatant captured.
B8 yielded a Kd of 46 nM, a koff of 0.0089 s⁻¹ and a kon of 190000 M⁻¹ s⁻¹.
B9 yielded a Kd of 17 nM, a koff of 0.0038 s⁻¹ and a kon of 230000 M⁻¹ s⁻¹.
Take B10: the affinity, expressed as Kd, was 55 nM; the koff worked out at 0.012 s⁻¹; the kon was 230000 M⁻¹ s⁻¹.

Another experiment deals with T5, His-tagged cynomolgus TIGIT. Put plainly: SPR (Biacore T200), antibody captured, His-tagged TIGIT analyte. The source holds these as a separate data set.
For B1, the Kd stood at 470 nM, the koff is 0.063 s⁻¹ and the kon came out at 130000 M⁻¹ s⁻¹.
For B2 the same measures were 75 nM, 0.0044 s⁻¹ and 59000 M⁻¹ s⁻¹.
In the same order, the values of B3 are 110 nM, 0.0074 s⁻¹ and 69000 M⁻¹ s⁻¹.
For the molecule B4, the affinity, expressed as Kd, was 130 nM; the koff worked out at 0.0078 s⁻¹; the kon amounted to 61000 M⁻¹ s⁻¹.

A further experiment deals with T1, His-tagged human TIGIT. Described as above. This is another data set of the same source.
Take B1: the affinity, expressed as Kd, was 0.051 nM; the koff came to 5.1e-05 s⁻¹; the kon was 1e+06 M⁻¹ s⁻¹.
In turn, B2 showed a Kd of 0.21 nM, a koff of 5.6e-05 s⁻¹ and a kon of 260000 M⁻¹ s⁻¹.
On to B3, for which the affinity, expressed as Kd, was 0.27 nM; the koff was 9.6e-05 s⁻¹; the kon is 350000 M⁻¹ s⁻¹.
The molecule B4 showed a Kd of 0.29 nM, a koff of 9.8e-05 s⁻¹ and a kon of 340000 M⁻¹ s⁻¹.

For a further experiment, the target named is T2, human TIGIT expressed on CHO-K1 cells. Put plainly: flow cytometry competition: biotinylated CD155-Fc on human TIGIT-CHO-K1 cells. This is another data set of the same source.
On to B1, for which the IC50 was 0.62 nM.
B2: the IC50 worked out at 1.04 nM.
The molecule B3 had an IC50 of 0.975 nM.
In turn, B4 returned an IC50 of 1.1 nM.

Another experiment concerns the target T3, TIGIT on TIGIT-over expressing …. As to the kind of experiment: cell-based or functional assay.
With B1, the “Bottom (RLU)” value worked out at 52900 RLU, the “EC50” value is 11.1 nM and the “Top (RLU)” value is 163000 RLU.
For the molecule B2, the “Bottom (RLU)” value turned out to be 51200 RLU, the “EC50” value is 9.1 nM and the “Top (RLU)” value was found to be 131000 RLU.
B3: the “Bottom (RLU)” value is 49800 RLU, the “EC50” value was found to be 9.03 nM and the “Top (RLU)” value was 129000 RLU.
Turning to B4, the “Bottom (RLU)” value was 49400 RLU, the “EC50” value turned out to be 11.1 nM and the “Top (RLU)” value is 135000 RLU.

The next experiment concerns the target T4, cynomolgus TIGIT expressed on CHO-K1 …. Put plainly: flow cytometry on CHO-K1 cells expressing cynomolgus TIGIT. This is another data set of the same source.
On to B5, for which the EC50 worked out at 1.45 nM.
Consider B7, for which the EC50 is 7.68 nM.

The next experiment has as its target T3, TIGIT on TIGIT-over expressing …. Put plainly: cell-based or functional assay. The source holds these as a separate data set.
On to B5, for which the “Bottom (RLU)” value was 10400 RLU, the response was half-maximal at 31.3 nM (EC50) and the “Top (RLU)” value worked out at 50600 RLU.
For B1 the same measures were 10500 RLU, 15.6 nM and 51700 RLU.
As to B6, the “Bottom (RLU)” value was 4520 RLU, the “EC50” value is above 100 nM and the “Top (RLU)” value was 11700 RLU.
In the case of B7, the “Bottom (RLU)” value was 11800 RLU, the “EC50” value was above 100 nM and the “Top (RLU)” value came out at 14200 RLU.

Another experiment deals with T2, human TIGIT expressed on CHO-K1 cells. As to the kind of experiment: flow cytometry on CHO-K1 cells expressing human TIGIT.
Turning to B5, the EC50 came out at 0.76 nM.
In turn, B1 yielded an EC50 of 0.46 nM.
With B6, the concentration giving a half-maximal response (EC50) came to 0.55 nM.
For B7, the EC50 is 8.43 nM.

A further experiment has the same target. The description is as above. This is another data set of the same source.
For the molecule B1, the EC50 stood at 0.65 nM.
With B2, the EC50 amounted to 1.16 nM.
In turn, B3 displayed an EC50 of 0.745 nM.
On to B4, for which the EC50 came out at 1.11 nM.

Broadly, the EC50 is the concentration giving half of the maximal effect. The term Kd denotes the free concentration of one partner at which half of the binding sites on the other are occupied at equilibrium, for simple one-to-one binding. A low value points to higher affinity. For orientation: koff means a measure of how fast the partners let go of each other. A lower koff goes with a long-lived complex. For orientation: kon means a measure of how fast the partners come together. A lower kon goes with slow association. What is called IC50 is the concentration needed to halve the response being measured. Read a high IC50 as weaker potency in that assay.
